Test results reported in US20120134982A1 (published 2012).
Blank lines part the entries; values can stand above or below the molecule they belong to.

Tests used:
[1] = biological target: human TNFR1, soluble recombinant protein (human) (UniProt P19438); test: phage ELISA on 1 nM TNFR1 coat, anti-M13-HRP; phage after 100 ug/ml trypsin 1 h RT; phage input 2.26E+10
TNFR1-FC fusion [2] = biological target: T1, TNFR1-FC fusion (human, UniProt P19438 30-211, limits assumed); test: RBA assay (column 'Activity (nM)'); taken to be of the Fc fusion; competition with TNF-alpha
T1 construct: not shown: Fc part, not described further
T1 sequence (looked up): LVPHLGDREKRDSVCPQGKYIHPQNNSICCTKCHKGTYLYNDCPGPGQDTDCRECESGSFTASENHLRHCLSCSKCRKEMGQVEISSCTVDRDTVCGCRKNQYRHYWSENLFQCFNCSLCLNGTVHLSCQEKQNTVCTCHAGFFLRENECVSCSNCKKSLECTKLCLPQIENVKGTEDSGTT

TNFR1-FC fusion [3] = biological target: T1, TNFR1-FC fusion; test: TNFR-1 receptor binding assay: inhibition of TNF-alpha binding to TNFR1; unstressed sample (T0)
TNFR1-FC fusion [4] = biological target: T1, TNFR1-FC fusion; test: TNFR-1 receptor binding assay: inhibition of TNF-alpha binding to TNFR1; after 7 days at 50 °C, concentration assumed from 1 mg/ml
TNFR1-FC fusion [5] = biological target: T1, TNFR1-FC fusion; test: TNFR-1 receptor binding assay: inhibition of TNF-alpha binding to TNFR1; after 14 days at 50 °C, concentration assumed from 1 mg/ml
recombinant human VEGF = biological target: T2, recombinant human VEGF (human, UniProt P15692-4 27-191, biotinylated where used on streptavidin or neutravidin surfaces); test: RBA assay (column 'Activity (nM)'); taken to be of the Fc fusion; competitor VEGFR2-Fc
T2 construct: also called hVEGF; VEGFA
T2 sequence (P15692 other isoform, or with tags, fused parts or gaps limits assumed): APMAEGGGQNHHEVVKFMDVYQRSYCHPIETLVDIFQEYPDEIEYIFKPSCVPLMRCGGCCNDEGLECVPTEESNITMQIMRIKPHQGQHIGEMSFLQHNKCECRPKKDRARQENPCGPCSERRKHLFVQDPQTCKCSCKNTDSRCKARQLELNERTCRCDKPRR

phage ELISA signal [1]: 0.337
Molecule: DOM1h-131

EC50 (TNFR1-FC fusion [2]): 0.047 nM
B1: DMS1544 (DOM1h-131-206 Fc fusion) (Fc fusion)
chain: EVQLLESGGGLVQPGGSLRLSCAASGFTFAHETMVWVRQAPGKGLEWVSHIPPDGQDPFYADSVKGRFTISRDNSKNTLYLQMNSLRAEDTAVYHCALLPKRGPWFDYWGQGTLVTVSS
notes: dAb fused to human IgG1 Fc; dimeric Fc fusion format; not shown: short linker and human IgG1 Fc

IC50 (read off the curve) (TNFR1-FC fusion [3]): ~0.1 nM
B2: DOM1h-131-511 (other)
VH: EVQLLESGGGLVQPGGSLRLSCAASGFTFAHETMVWVRQAPGKGLEWVSHIPPVGQDPFYADSVKGRFTISRDNSKNTLYLQMNSLRAEDTAVYYCALLPKRGPWFDYWGQGTLVTVSS
notes: Anti-TNFR1 domain antibody (dAb, immunoglobulin single variable domain, VH), tested as soluble monomer; also called GSK1995056A

IC50 (read off the curve) (TNFR1-FC fusion [4]): ~0.1 nM | IC50 (read off the curve) (TNFR1-FC fusion [5]): ~0.1 nM
B3: DOM1h-131-206 (other)
VH: EVQLLESGGGLVQPGGSLRLSCAASGFTFAHETMVWVRQAPGKGLEWVSHIPPDGQDPFYADSVKGRFTISRDNSKNTLYLQMNSLRAEDTAVYHCALLPKRGPWFDYWGQGTLVTVSS
notes: also called GSK1995057A

EC50 (recombinant human VEGF): 0.913 nM
B4: DMS1546 (DOM15-10 Fc fusion) (Fc fusion)
chain: DIQMTQSPSSLSASVGDRVTITCRASQWIGPELSWYQQKPGKAPKLLIYHTSILQSGVPSRFSGSGSGTDFTLTISSLQPEDFATYYCQQYMFQPRTFGQGTKVEIRR
notes: VK dAb fused to human IgG1 Fc; dimeric Fc fusion format; not shown: short linker and human IgG1 Fc
